Measurements: paper PMC3983218

Biological target: T1, MtuSSB (Mycobacterium tuberculosis, UniProt P9WGD5)
T1 sequence: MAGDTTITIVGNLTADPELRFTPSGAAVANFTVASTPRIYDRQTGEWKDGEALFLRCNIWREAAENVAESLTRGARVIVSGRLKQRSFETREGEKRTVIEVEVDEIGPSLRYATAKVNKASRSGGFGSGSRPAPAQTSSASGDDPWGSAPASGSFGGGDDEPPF
Test: EMSA; 20 mM Tris-HCl pH 8.0, 50 mM NaCl, 5% glycerol, 50 μg/ml BSA, 15 μl, 30 min at 4°C; […]
Conditions: protein: recombinant; chain copies: 4; label: 5' 32P; single strand

B1: 79 mer ssDNA (ssDNA)
DNA: GCACTAGTGCGGATAGCCCCGTGTTGTTGTCTGACCCCCGACCCCGACGGCAATGCGGGGCAATCCCCTGGAGGCCTGC
Does B1 bind?
Result: binds
